The text below walks through data of US20200297860 (published 2020).

One assay has as its target T1, human mesothelin (human, UniProt Q13421).
T1 chain: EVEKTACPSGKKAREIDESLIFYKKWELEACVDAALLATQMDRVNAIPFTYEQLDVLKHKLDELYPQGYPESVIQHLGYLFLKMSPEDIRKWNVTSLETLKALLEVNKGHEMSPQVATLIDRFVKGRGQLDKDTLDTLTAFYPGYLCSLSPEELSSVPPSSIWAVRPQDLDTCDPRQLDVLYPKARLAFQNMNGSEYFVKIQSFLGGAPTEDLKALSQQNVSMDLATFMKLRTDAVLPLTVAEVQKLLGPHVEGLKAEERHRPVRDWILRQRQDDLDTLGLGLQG
Briefly: SPR. Background: Surface plasmon resonance follows binding to a sensor surface in real time, without labels.

The target in assay [1] is human folate receptor alpha (human). Briefly: ELISA.
Sequence of human folate receptor alpha (human) (P15328 whole entry): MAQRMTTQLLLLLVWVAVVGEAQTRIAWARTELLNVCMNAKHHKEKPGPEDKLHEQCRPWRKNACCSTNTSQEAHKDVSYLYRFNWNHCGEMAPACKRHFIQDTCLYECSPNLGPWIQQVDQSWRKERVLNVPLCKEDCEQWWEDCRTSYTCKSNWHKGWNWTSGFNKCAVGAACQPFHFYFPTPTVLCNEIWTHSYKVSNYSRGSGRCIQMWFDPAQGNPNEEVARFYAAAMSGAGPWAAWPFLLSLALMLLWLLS

B1: 346C6-zu (antibody, V domains shown)
VH: EVQLVESGGGLVQPGGSLRLSCAASGFSLSSYAMIWVRQAPGKGLEWIGTISTGGITYYASWAKGRFTISRDNSKNTLYLQMNSLRAEDTAVYYCARGGYAASSAYYLPYYFDLWGQGTLVTVSS
VL: DIQMTQSPSSLSASVGDRVTITCQSSQSVYNNNNLAWYQQKPGKVPKLLIYLASTLASGVPSRFSGSGSGTDFTLTISSLQCEDAATYYCLGGCDDDADTFAFGGGTKVEIK
A word on the Kd: it is the equilibrium constant for the complex coming apart. B1: in the assay with human mesothelin, the Kd was 8.9 nM.

B2: MORAb003-DBCO-PEG2 eribulin (antibody, V domains shown)
VH: EVQLVESGGGVVQPGRSLRLSCSASGFTFSGYGLSWVRQAPGKGLEWVAMISSGGSYTYYADSVKGRFAISRDNAKNTLFLQMDSLRPEDTGVYFCARHGDDPAWFAYWGQGTPVTVSS
VL: DIQLTQSPSSLSASVGDRVTITCSVSSSISSNNLHWYQQKPGKAPKPWIYGTSNLASGVPSRFSGSGSGTDYTFTISSLQPEDIATYYCQQWSSYPYMYTFGQGTKVEIK
Usually EC50 stands for the concentration needed to bring the measured effect to its halfway point. Low readings indicate an effect from little substance, high ones a need for much substance. In turn, B2 returned an EC50 in assay [1] of 0.0191 µg/mL.

B3: MORAb003-ER1235638 (antibody, V domains shown)
VH: B2 VH
VL: B2 VL
The molecule B3 showed an EC50 in assay [1] of 0.0153 µg/mL.

B4: MORAb003-DBCO-PEG4 eribulin (antibody, V domains shown)
VH: B2 VH
VL: B2 VL
In assay [1], B4 gave an EC50 of 0.0133 µg/mL.

B5: MORAb003-DBCO-ER1138856 (antibody, V domains shown)
VH: B2 VH
VL: B2 VL
The molecule B5 displayed an EC50 in assay [1] of 0.015 µg/mL.

B6: MORAb003-ER1236941 (antibody, V domains shown)
VH: B2 VH
VL: B2 VL
Consider B6, for which the EC50 in assay [1] was found to be 0.013 µg/mL.

B7: MORAb003-DBCO-PEG4 VCP eribulin (antibody, V domains shown)
VH: B2 VH
VL: B2 VL
B7 yielded an EC50 in assay [1] of 0.016 µg/mL.

B8: 111B10-zu (antibody, V domains shown)
VH: EVQLVESGGGLVQPGGSLRLSCAASGFSLNNYAMSWVRQAPGKGLEWIGSISTGGLAFYANWAKGRFTISRDNSKNTLYLQMNSLRAEDTAVYYCARNGGGSYIFYYFDLWGQGTLVTVSS
VL: DIQMTQSPSSLSASVGDRVTITCQASQSISSYLSWYQQKPGKAPKLLIYSASTLASGVPSRFSGSGSGTDFTLTISSLQCEDAATYYCQSYYDIGTSTFGGGTKVEIK
The molecule B8 registered an equilibrium dissociation constant (Kd) in the assay with human mesothelin of 6.5 nM.
